According to patent US20230043289A1:
Substitutions are numbered along the chain they refer to.

B1: hu37D3-H9.v76 (antibody, V domains shown)
VH: EVQLVESGGGLVQPGGSLRLSCAASGLIFRSYGMSWVRQAPGKGLEWVATINSGGTRTYYPDSVKGRFTISRDNSKNTLYLQMNSLRAEDTAVYYCANSYSGAMDYWGQGTLVTVSS
VL: DDLLTQTPLSLPVTPGQPASISCRSSQSIVHSNGNTYLEWYLQKPGQSPQLLIYKVSNRFSGVPDRFSGSGSGTDFTLKISRVEAEDVGVYYCFQGTLVPWTFGQGTKVEIK
B2: hu37D3-H9.v93 (antibody, V domains shown)
VH: B1 VH
VL: EDLLTQSPSSLSASVGDRVTITCRSSQSIVHSNGNTYLEWYQQKPGKSPKLLIYKVSNRFSGVPSRFSGSGSGTDFTLTISSLQPEDFATYYCFQGTLVPWTFGQGTKVEIK
B3: hu37D3-H9.v83 (antibody, V domains shown)
VH: B1 VH with V5L
VL: B1 VL with T7S, P15L, L42Q, K44R, Q50R

target: Cynomolgus monkey Tau monomer (cynomolgus monkey); test: SPR 37C, hIgG captured, cyno Tau monomer 0.1-33.3 nM
Sequence (P10636 other isoform, or with tags, fused parts or gaps): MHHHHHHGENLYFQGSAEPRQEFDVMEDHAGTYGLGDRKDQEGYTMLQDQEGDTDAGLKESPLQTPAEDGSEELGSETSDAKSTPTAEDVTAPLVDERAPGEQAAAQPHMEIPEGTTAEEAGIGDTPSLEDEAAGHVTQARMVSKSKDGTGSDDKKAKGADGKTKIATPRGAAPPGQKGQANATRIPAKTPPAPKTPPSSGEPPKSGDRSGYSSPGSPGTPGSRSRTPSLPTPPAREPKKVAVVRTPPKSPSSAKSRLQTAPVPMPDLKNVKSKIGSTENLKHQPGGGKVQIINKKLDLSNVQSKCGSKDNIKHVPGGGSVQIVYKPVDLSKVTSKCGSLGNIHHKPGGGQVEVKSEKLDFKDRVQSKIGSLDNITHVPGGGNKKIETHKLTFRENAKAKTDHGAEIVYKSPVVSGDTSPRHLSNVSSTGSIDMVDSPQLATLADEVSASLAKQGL

Row | Binder | Kd | koff | kon
1 | B1 | 0.1 nM | 0.00114 s⁻¹ | 9.27e+06 M⁻¹ s⁻¹
2 | B2 | 0.1 nM | 0.00178 s⁻¹ | 1.29e+07 M⁻¹ s⁻¹
3 | B3 | 0.1 nM | 0.00114 s⁻¹ | 9.55e+06 M⁻¹ s⁻¹
